From patent US20140242083A1 (Hoffmann-La Roche, published 2014)

Legend:
[1] = biological target: T1, Construct 1 (CSPG repeat 15 of human MCSP with the natural transmembrane domain) (human, UniProt Q6UVK1 2044-2246); assay: FACS titration of LC007 on HEK-EBNA cells transfected with the construct; mock-transfected cells as control
T1 construct: Expressed on HEK-EBNA cells; contains the original transmembrane region; also called MCSP repeat 15 construct
T1 sequence: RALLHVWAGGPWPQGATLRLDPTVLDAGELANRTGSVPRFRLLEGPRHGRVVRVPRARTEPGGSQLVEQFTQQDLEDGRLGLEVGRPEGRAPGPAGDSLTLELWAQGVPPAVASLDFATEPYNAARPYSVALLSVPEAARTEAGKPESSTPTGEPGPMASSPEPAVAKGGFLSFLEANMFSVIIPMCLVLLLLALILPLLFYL

[2] = biological target: T2, human MCSP (melanoma chondroitin sulfate proteoglycan) on melanoma cells (human, UniProt Q6UVK1 30-2322); assay: FACS titration on A2058 melanoma cells, FITC anti-human IgG Fc secondary antibody
T2 construct: Native MCSP on the human melanoma lines Colo38, A2058 and A375; also called surface MCSP; CSPG4
Procedure: (§1) Binding activity was determined by the following method. Target cells were detached from culture flask with cell dissociation buffer, counted and checked for viability. Cells were resuspended and adjusted to 1.111×10⁶ (viable) cells/ml in PBS-0.1% BSA. 180 μl of this suspension were transferred to each well (200,000 cells/well) in a round bottom 96-well-plate, centrifuged for 4 min, at 400 g, and resuspended. 20 μl of antibody dilutions in PBS-0.1% BSA (from 10 μg/ml to […]) were added to each well. The samples were centrifuged for 4 min, at 400 g, and resuspended. Secondary antibody, FITC-conjugated AffiniPure F(ab′)2 fragment goat anti-human IgG Fcg Fragment Specific (Jackson Immuno Research Lab #109-096-098)), was added and the sample centrifuged for 4 min, at 400 g, and resuspended. Fluorescence was measured in flow cytometer (e.g. FACS Canto II). Antibody 9.2.27, described in Morgan A C Jr, Galloway D R, Reisfeld R A. Hybridoma. 1981; 1(1):27-36.; GenBank Accession Numbers: GI:20797193 and GI:20797189 for light and heavy chain respectively, was used as a reference (FIG. 2). Human melanoma cell-lines Colo38, A2058, and A375 were used. Giacomini et al. 1985 (for Colo38). Marquardt H, Todaro G J. J Biol. Chem. 1982 May 10; 257(9):5220-5 (for A2058). Geiser M, Schultz D, Le Cardinal A, Voshol H, Garcia-Echeverria C. Cancer Res. 1999 Feb. 15; 59(4):905-10 (for A375).

[3] = biological target: T2, human MCSP (melanoma chondroitin …); assay: FACS titration on Colo38 melanoma cells, FITC anti-human IgG Fc secondary antibody
Procedure: as §1

[4] = biological target: T3, Construct 4 (CSPG repeat 12-15 of human MCSP) (human, UniProt Q6UVK1 1702-2246); assay: FACS titration of LC007 on HEK-EBNA cells transfected with the construct; mock-transfected cells and isotype as controls
T3 construct: Expressed on HEK-EBNA cells; contains the original transmembrane region
T3 sequence: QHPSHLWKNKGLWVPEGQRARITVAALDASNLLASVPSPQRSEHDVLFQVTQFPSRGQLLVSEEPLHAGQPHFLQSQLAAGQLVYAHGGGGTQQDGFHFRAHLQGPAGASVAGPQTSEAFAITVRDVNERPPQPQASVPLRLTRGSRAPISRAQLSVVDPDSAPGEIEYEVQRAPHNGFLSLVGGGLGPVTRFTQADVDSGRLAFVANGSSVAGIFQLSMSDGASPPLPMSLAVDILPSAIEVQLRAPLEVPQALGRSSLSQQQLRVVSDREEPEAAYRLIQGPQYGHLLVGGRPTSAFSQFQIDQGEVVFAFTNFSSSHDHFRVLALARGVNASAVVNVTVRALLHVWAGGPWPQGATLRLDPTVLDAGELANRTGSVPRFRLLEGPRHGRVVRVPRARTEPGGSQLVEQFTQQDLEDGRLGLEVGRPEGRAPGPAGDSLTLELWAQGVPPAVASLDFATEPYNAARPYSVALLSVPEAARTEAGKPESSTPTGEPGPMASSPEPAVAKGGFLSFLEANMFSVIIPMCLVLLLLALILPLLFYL

[5] = biological target: T2, human MCSP (melanoma chondroitin …); assay: FACS titration on A375 melanoma cells, FITC anti-human IgG Fc secondary antibody
Procedure: as §1

[6] = biological target: T4, cynomolgus MCSP D3 domain expression construct (C-terminal part, N-terminal FLAG-tag) in HEK-EBNA cells (cynomolgus, UniProt Q6UVK1 1582-2224 (human entry), limits assumed); assay: flow cytometry titration of LC007 on HEK-EBNA cells expressing the construct; untreated EBNA cells as control
T4 construct: Tested by flow cytometry on transfected cells; the membrane anchor is not described; also called cynomolgus construct; cynomolgus antigen
T4 chain: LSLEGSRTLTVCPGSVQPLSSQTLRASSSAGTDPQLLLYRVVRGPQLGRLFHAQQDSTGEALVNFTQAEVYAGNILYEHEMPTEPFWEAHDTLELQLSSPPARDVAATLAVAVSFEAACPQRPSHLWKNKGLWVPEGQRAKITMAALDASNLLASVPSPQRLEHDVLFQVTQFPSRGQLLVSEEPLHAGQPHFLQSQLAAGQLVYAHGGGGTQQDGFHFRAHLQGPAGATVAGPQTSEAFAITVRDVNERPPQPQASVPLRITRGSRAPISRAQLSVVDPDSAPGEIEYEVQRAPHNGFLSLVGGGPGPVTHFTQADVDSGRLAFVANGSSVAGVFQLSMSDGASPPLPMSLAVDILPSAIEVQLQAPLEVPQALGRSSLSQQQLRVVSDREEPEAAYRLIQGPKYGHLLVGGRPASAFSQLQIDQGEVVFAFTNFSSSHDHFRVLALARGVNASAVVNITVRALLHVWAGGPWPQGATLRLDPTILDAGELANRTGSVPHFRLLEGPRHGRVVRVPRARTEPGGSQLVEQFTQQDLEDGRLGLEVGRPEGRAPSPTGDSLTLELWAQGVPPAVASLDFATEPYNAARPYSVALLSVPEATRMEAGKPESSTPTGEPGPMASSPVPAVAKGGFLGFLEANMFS

[7] = biological target: T5, human MCSP D3 domain expression construct (C-terminal part, N-terminal FLAG-tag) in HEK-EBNA cells (human, UniProt Q6UVK1 1582-2224, limits assumed); assay: as above
T5 construct: 'A similar construct' to the cynomolgus one; it is not clear whether the signal peptide and FLAG-tag are part of it; also called corresponding human expression construct; human counterpart
T5 sequence: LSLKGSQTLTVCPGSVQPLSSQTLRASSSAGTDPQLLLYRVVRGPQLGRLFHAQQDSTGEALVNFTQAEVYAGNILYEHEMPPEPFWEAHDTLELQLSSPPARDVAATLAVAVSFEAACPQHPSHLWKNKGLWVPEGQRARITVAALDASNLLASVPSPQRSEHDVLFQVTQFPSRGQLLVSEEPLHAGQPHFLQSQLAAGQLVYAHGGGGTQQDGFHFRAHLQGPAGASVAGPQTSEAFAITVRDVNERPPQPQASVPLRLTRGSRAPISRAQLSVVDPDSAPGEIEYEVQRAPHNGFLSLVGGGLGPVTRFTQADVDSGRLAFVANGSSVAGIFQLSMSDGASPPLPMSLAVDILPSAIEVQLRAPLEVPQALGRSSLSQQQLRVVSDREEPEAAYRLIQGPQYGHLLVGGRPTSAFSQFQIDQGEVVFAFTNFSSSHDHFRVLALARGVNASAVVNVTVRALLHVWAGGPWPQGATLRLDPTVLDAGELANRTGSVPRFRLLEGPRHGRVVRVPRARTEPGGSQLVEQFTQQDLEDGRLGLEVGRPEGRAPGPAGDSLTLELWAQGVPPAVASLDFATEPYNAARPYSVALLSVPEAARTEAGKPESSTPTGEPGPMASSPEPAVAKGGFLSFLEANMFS

T2 sequence (Q6UVK1 30-2322 limits assumed): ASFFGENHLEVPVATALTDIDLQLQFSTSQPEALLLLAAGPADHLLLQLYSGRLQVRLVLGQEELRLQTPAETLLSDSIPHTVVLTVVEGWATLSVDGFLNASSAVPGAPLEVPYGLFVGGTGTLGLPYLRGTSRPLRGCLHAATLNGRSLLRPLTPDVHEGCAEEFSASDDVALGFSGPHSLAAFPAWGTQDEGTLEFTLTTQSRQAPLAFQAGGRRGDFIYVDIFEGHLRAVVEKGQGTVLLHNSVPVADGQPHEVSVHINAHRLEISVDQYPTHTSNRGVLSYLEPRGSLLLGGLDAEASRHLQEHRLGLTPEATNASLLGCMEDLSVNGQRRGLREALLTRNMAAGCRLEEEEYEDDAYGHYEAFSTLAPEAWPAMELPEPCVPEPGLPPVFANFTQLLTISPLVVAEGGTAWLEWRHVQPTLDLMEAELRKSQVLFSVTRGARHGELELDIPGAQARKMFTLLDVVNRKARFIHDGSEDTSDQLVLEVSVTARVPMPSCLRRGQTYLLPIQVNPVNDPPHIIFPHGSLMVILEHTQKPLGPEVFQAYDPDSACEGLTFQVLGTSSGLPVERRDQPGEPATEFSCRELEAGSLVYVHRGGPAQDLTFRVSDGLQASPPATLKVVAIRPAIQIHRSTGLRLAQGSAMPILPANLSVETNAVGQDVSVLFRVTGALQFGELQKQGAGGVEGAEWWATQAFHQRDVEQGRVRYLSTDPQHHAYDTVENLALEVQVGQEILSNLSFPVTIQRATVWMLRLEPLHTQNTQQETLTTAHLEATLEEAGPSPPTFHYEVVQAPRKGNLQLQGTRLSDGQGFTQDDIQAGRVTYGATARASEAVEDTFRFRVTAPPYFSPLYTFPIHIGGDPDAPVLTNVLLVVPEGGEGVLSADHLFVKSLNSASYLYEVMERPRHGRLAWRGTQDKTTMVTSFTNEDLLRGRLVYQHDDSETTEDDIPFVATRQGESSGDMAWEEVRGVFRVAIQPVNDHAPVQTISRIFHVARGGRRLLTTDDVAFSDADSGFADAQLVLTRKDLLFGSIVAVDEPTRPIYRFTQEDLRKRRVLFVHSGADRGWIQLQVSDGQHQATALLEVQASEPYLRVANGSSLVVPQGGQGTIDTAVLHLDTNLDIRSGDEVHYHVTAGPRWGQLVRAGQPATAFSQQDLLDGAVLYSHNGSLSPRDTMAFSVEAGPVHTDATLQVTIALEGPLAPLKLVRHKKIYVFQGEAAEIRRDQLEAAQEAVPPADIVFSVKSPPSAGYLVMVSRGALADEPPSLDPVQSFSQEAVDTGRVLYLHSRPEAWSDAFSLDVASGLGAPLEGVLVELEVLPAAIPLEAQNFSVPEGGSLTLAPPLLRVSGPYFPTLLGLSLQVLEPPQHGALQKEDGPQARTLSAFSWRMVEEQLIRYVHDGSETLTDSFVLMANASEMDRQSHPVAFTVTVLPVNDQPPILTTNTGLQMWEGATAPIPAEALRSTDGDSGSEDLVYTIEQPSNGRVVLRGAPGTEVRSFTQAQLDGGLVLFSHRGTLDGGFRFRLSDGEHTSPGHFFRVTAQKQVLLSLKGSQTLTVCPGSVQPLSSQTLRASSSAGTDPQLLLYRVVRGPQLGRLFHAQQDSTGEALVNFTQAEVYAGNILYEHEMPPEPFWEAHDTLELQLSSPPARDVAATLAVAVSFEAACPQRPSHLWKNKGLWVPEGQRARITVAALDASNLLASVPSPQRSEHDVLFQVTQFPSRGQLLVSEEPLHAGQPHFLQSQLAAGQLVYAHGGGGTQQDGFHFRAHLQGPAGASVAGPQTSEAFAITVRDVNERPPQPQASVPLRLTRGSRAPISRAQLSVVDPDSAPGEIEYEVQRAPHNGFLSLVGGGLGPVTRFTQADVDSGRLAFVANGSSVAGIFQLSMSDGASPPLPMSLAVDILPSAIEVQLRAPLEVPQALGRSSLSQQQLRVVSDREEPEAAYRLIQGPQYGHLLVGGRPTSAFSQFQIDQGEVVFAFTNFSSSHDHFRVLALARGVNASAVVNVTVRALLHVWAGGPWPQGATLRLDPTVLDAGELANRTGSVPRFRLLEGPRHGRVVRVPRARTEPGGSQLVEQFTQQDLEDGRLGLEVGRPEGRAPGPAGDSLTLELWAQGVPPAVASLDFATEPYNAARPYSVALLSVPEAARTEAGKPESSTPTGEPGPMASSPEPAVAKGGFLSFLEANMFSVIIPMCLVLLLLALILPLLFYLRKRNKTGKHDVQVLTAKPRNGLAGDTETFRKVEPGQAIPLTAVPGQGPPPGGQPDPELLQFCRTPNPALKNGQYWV

B1: chimeric antibody LC007 (antibody, human IgG1, kappa, V domains shown)
VH: EVQLQESGPGLVKPSQSLSLTCSVTGYSITSGYYWNWIRQFPGNKLEWMGYITYDGSNNYNPSLKNRISITRDTSKNQFFLKLNSVTTEDTATYYCADFDYWGQGTTLTVSS
VL: DIVLTQSPSSLSASLGDRVTISCSASQGIRNYLNWYQQRPDGTVKLLIYYTSSLHSGVPSRFSGSGSGTDYSLTISNLEPEDIATYYCQQYSKLPWTFGGGTKLEIKR
notes: all such entries are written under the chimeric antibody; also called LC007 antibody; LC007 wt
- binding result [1]: no binding (tested: 5 ug/ml)
- EC50 (read off the curve) [2]: ~0.03 µg/mL
- EC50 (read off the curve) [3]: ~0.05 µg/mL
- EC50 (read off the curve) [4]: ~0.3 µg/mL
- EC50 (read off the curve) [5]: ~0.05 µg/mL
- EC50 (read off the curve) [6]: ~0.1 µg/mL
- EC50 (read off the curve) [7]: ~0.08 µg/mL
